Source: CN113999301A (JIANGSU XINTRUM PHARMACEUTICALS CO LTD, dated 2022)

Molecular target: 新冠假病毒Delta突变株的S蛋白 (B.1.617.2(Delta)) (SARS-CoV-2, UniProt P0DTC2 14-1273)
Assay: cell-based or functional assay

B1: 抗SARS-CoV-2(COVID-19)S蛋白RBD单克隆抗体B15-5-B3 (antibody, V domains shown)
VH: EVKFEESGGGLVQPGGSMKLSCAASGFTFSDAWMDWVRQSPEKGLEWVAEIRNKANNHATYYAESVKGRFTISRDDSKSSVYLQMNSLRAEDTGIYYCTPYDYAYPWFWGQGTLVTVSA
VL: EIVLTQSPTTMAASPGEKITITCSASSSISSHYLHWYQQKPGFSPKLLIYRSYSLASGFPGRFSGSGSGTSFSLSIGTMEAEDVATYYCQQGSSRITPFGGGTKLEIK
- 假病毒中和效应 EC50 (luciferase, HEK293-ACE2 cells): 0.27 µg/mL
